Source: the DeepSol protein solubility set

Assay: soluble on expression in E. coli; label from the status in PepcDB or PDB records
In the case of “MGSDKIHHHHHHMSIVQAKFEAKETSFHVEGYEKIEYDLVYVDGIFEIQNSALADVYQGFGRCLAIVDANVSRLYGNQIQAYFQYYGIELRLFPITITEPDKTIQTFERVIDVFADFKLVRKEPVLVVGGGLITDVVGFACSTYRRSSNYIRIPTTLIGLIDASVAIKVAVNHRKLKNRLGAYHASRKVFLDFSLLRTLPTDQVRNGMAELVKIAVVAHQEVFELLEKYGEELLRTHFGNIDATPEIKEIAHRLTYKAIHKMLELEVPNLHELDLDRVIAYGHTWSPTLELAPRLPMFHGHAVNVDMAFSATIAARRGYITIAERDRILGLMSRVGLSLDHPMLDIDILWRGTESITLTRDGLLRAAMPKPIGDCVFVNDLTREELAAALADHKELCTSYPRGGEGVDVYPVYQKELIGSVK”, the “soluble on expression in E. coli” value is reported as “not soluble”. With “MGSDKIHHHHHHMSKKVVVTGANGYIGAHLIAELQKHSQHFQTIAVDIDDKYIPKGVTFVSMDLLNEARKETLYKECGEPDICVHLAWRDGFQHNALSHIDDLPCHFHFLKNLADHGTTHFAIAGSFREYGSVNGMVDQDAVVIPDNFYTLAKSMLKQALEIYFKEKNICLQWLRPFTVYGNDSRNNSIMSKIIRWEDEGKQSFPFTSGNEEYDYVSVYEVARQIAAVISQREVDGIIDCCTGKPTRLGDKIEGFIRENHFKIRPEYGAFPKREYDSSVIYGDNRKITEIIKKCILF” the “soluble on expression in E. coli” value was “not soluble”. For “MGSDKIHHHHHHMSKPDRVVLIGVAGDSGCGKSTFLNRLADLFGTELMTVICLDDYHSLDRKGRKEAGVTALDPRANNFDLMYEQVKALKNGETIMKPIYNHETGLIDPPEKIEPNRIIVIEGLHPLYDERVRELLDFSVYLDIDDEVKIAWKIQRDMAERGHSYEDVLASIEARRPDFKAYIEPQRGHADIVIRVMPTQLIPNDTERKVLRVQLIQREGRDGFEPAYLFDEGSTIQWTPCGRKLTCSYPGIRLAYGPDTYYGHEVSVLEVDGQFENLEEMIYVEGHLSKTDTQYYGELTHLLLQHKDYPGSNNGTGLFQVLTGLKMRAAYERLTSQAAPVAASV”, the “soluble on expression in E. coli” value was “not soluble”. With “MGSDKIHHHHHHMSKSITRKIQLTGGSTYIVSLPKEWIKALSLSAGDEVEIYQDTDMKLLIVPKSANTTDQKEIKKIIHCDNVTSEAIIREFIAYYIAGFSSVSITCPRMSSSTRAYIKDVVRRRLLGAEVIEEDVSTISIQFLVDEKELSIKKAISRAFTISYNMLRDSLEAISKADIELAKEISGRDDEVDRFFFYIARQLTISVKAINVLDSEGYNLTQMVDIYSVAKTIERVGDHANRIASLVEDVSKFSNKEDLVNLGLTILESYKSAMNAFLNEKKDIAHSLISNIEIFEKLRELQEIAIKSNDNPKIITSTSMTVESLRRVARYSADIAEATIDILAKSNK” the “soluble on expression in E. coli” value was “not soluble”. For “MGSDKIHHHHHHMSLDLSTPLQLIGRSVEFQRVVEVLAQDGDLLITGVPGSGRRTLVRWGVTEVRAIALDIDCIRATDGERFLQLLTEAINQNWQAEKIQSWLDKNAKEFFTFHPETKLKLLRSLSQKQIWQAFELLLELPQIMAVDLNKRLVLILQSFPHIRSWDRNGLWEISFRRKIKEHTHVSYVLIATIAETGNYSDENNYPLETIQLPPLNRDVLAVWAREILHGSKLTFDSRSKALQLFLDAVQGHIGDAMAIIRRLQTLCVPDSLVTENDVQQAIEGLLKDLSMTYESLLMLLPANQVHLLECLALDPTEKPQSKDYIQKHGLSRGGSLQGALTGLHHKGLIYGAEQGYLLAMPLLALWLRQRLS”, the “soluble on expression in E. coli” value was “not soluble”. With “MGSDKIHHHHHHMSLKDYDAARLAQVREEVTAKYAELKAKNLSLDLTRGKPSAEQLDLSNDLLSLPGGDFRTKDGVDCRNYGGLLGIADIRELWAEALGLPADLVVAQDGSSLNIMFDLISWSYTWGNNDSSRPWSAEEKVKWLCPVPGYDRHFTITEHFGFEMINVPMTDEGPDMGVVRELVKDPQVKGMWTVPVFGNPTGVTFSEQTCRELAEMSTAAPDFRIVWDNAYALHTLSDEFPIVHNVIEFAQAAGNPNRFWFMSSTSKITHAGSGVSFFASSKENIEWYASHANVRGIGPNKLNQLAHAQFFGDVAGLKAHMLKHAASLAPKFERVLEILDSRLSEYGVAKWTSPTGGYFISVDVVPGTASRVVELAKEAGIALTGAGSSFPLHNDPNNENIRLAPSLPPVAELEVAMDGFATCVLMAALEV” the “soluble on expression in E. coli” value was “not soluble”. With “MGSDKIHHHHHHMSLKFDFSNLFEPNISGGLTDEDVKSVEEKVTSAVRNFVENTPDFAKLDRSWIDSVKSLEDWIINFDTVVVLGIGGSGLGNLALHYSLRPLNWNEMTREERNGYARVFVVDNVDPDLMSSVLDRIDPKTTLFNVISKSGSTAEVMATYSIARGILEAYGLDPREHMLITTDPEKGFLRKLVKEEGFRSLEVPPGVGGRFSVLTPVGLLSAMAEGIDIDELHEGAKDAFEKSMKENILENPAAMIALTHYLYLNKGKSISVMMAYSNRMIYLVDWYRQLWAESLGKRYNLKGEEVFTGQTPVKALGATDQHSQIQLYNEGPNDKVITFLRVENFDREIVIPETGRAELSYLARKKLSELLLAEQTGTEEALRENNRPNMRVTFDGLTPYNVGQFFAYYEAATAFMGYLLEINPFDQPGVELGKKITFALMGREGYTYEIKERSKKVIIE” the “soluble on expression in E. coli” value was “soluble”. With “MGSDKIHHHHHHMSLLTVKDLGQSFIDKTLYEDANFVLNKEDHMGVTGQNGVGKSTLIKILTGEILPDNGQVKWQNKIDVGYLDQYAKLAPGVTIRGFLRTAFDDLFQKEKELNELYTKYAETSDEDLLEKAGKVQTYLEENNFYDIDTEIEQVASGLGLADLGYDHDVSKLSGGQRSKIILGKLLLQNPDVLVLDEPTNYLDVSHIDWLVDYLNNFEGAFIVVSHDYDFLGRITNCIIDIDFGTITRYTGTLKQAMRQKAANRETYLKAYANQQRKIAKTEAYIRKNKAGTRAKSAKSREKQLARMDVLTPPKNNRRAKFEFPYVATASNLLLQTQDLVIGYDQALVKSAFNFSVGGDEKVAITGFNGIGKTTLLKTLLGQLKPIYGSYDLSVTAKLAYFKQDLTWPNNNMTPLQYLQEEFERKKPKELRQALARMGLTAQQAMSPLKELSGGEQEKVKLAKMQFEPANLLFLDEPTNHLDNDTKDALRKAIINFSGGVIIVSHERDFFRGDWIDKTIDIETMN” the “soluble on expression in E. coli” value was “not soluble”. With “MGSDKIHHHHHHMSLPKYVEQLLKEKSNVRVFSFKYDGKSYWLKQTEKLSFIWRFLKSNPAEMLKSEIIRLQELNKKSAPVPKLVLFGDNFFVTEDVGSSANTWVENEDLSIELRNKVLFDCAQALASLHKQNITHGRPALRDMIWCEEKVIFVDFECTSSSNNIDWQKIRDGLVFIHSLGRSSTVSDEQIALTVTHYRQYCDADIWQKTADFIYKYRWAYYVLRIFKPVARMDLIAIYRLFEAILKNQETL” the “soluble on expression in E. coli” value was “not soluble”. In the case of “MGSDKIHHHHHHMSLYLDDTLSRIVELDLKDTRIVPFLAGEPGIGKTSFIYGIGERAGYKVFSISVNTLADKGDLTGARTLQDPADGKWKQMFFPHATFVEANDYALANPNETVVILLDEINRTDSDVTSASMTISTERRVGTTDLAPNVRLAVTGNLTGNVTHLDSASLTRFSLYEVKPSAETFMNIMGGRLNKYIRTVLTKYPEYIFMKPTTATALITTGDDDDDHTTNAKQMMDFNAVLGSDQDMVQFTAPRTIEGLSVWLNNADDDFLRLLLQEKVDGLARSMSLLQATLESHTGDTAFTAEVLSEMTNDLLSSASQAPSGPIKPFVYDRLAAAPSNTVLEQEVHTLSLNDRADVLLFALHDTVNNAAPSIIAHLASEGVLDELPKDRISKIVSLGPVPTANYHALTRQDTTLTRNLGPAVLGFLES”, the “soluble on expression in E. coli” value is reported as “not soluble”. In the case of “MGSDKIHHHHHHMSNDETVEKVTQQVSELKSTDVKEQVVTPWDVEGGVDEQGRAQNIDYDKLIKQFGTKPVNEETLKRFKQVTGREPHHFLRKGLFFSERDFTKILDLYEQGKPFFLYTGRGPSSDSMHLGHMIPFVFTKWLQEVFDVPLVIELTDDEKFLFKHKLTINDVKNFARENAKDIIAVGFDPKNTFIFSDLQYMGGAFYETVVRVSRQITGSTAKAVFGFNDSDCIGKFHFASIQIATAFPSSFPNVLGLPDKTPCLIPCAIDQDPYFRVCRDVADKLKYSKPALLHSRFFPALQGSTTKMSASDDTTAIFMTDTPKQIQKKINKYAFSGGQVSADLHRELGGNPDVDVAYQYLSFFKDDDVFLKECYDKYKSGELLSGEMKKLCIETLQEFVKAFQERRAQVDEETLDKFMVPHKLVWGEKERLVAPKPKTKQEKK”, the “soluble on expression in E. coli” value is reported as “not soluble”. For “MGSDKIHHHHHHMSNEFDSDRYSTYWAEEWLDVKQYSPIGRHTRRKIMQLLARCPAPDTFADFGSGEGSLLSMVHAKYPAARLFGCDFASESVRRCRQRLPQAEIVLKDLTDPEPPFAGRVSVGVCSEVLEHIEDDARALHNLGTWAEHVIITVPGGELDESSRAVGHLRHYTKDSLRGLARRAGLEVLHLEEWGFPFSYPWYARVRNKAGYGMMVGRYSMRKKLLCHALYLLFFGNDLFSSGNKLFMLCRGSKA”, the “soluble on expression in E. coli” value was “not soluble”. In the case of “MGSDKIHHHHHHMSNKPFFYQDPFPLKKDDTEYYLLTSEHVSVAEFEGQEILKVAPEALTLLARQAFHDASFMLRPAHQQQVADILRDPQASENDKYVALQFLRNSDIAAKGVLPTCQDTGTAIIVGKKGQRVWTGGGDEAALARGVYNTYIEDNLRYSQNAALDMYKEVNTGTNLPAQIDLYSVDGDEYKFLCIAKGGGSANKTYLYQETKALLTPGKLKNYLVDKMRTLGTAACPPYHIAFVIGGTSAEANLKTVKLASAKYYDALPTEGNEHGQAFRDIELEKELLLEAQNLGLGAQFGGKYFAHDIRVIRLPRHGASCPVGMGVSCSADRNIKAKINRDGIWIEKLERNPGKYIPEALRQAGEGEAVRVDLNRPMSEILQQLSQYPVSTRLSLNGTIIVGRDIAHAKLKERMDRGEGLPQYIKDHPIYYAGPAKTPEGYASGSLGPTTAGRMDSYVDQLQSQGGSMIMLAKGNRSQQVTDACKKHGGFYLGSIGGPAAVLAQGSIKRLECVEYPELGMEAIWKIEVEDFPAFILVDDKGNDFFQQIQSSQCGAALSNVAALRGGNMIRYFAGERRKRLIRSTPLCCYR”, the “soluble on expression in E. coli” value is reported as “not soluble”. For “MGSDKIHHHHHHMSNLKHTRHNSHNVRHHSTGNSMNYVSTGQGEAILLIHGLFGNLDNLKGLGQALEAHHQVIRVDVPNHGLSEHRQQMDYPSLAKAMVDLLDELELERVHIVGHSMGGKIAMATALAYPNRIISLVAADIAPVAYQPRHNAVFAALESLPLEGHTDRRFALAHLLAAGIDDATAQFLLKNLQRSGTGFRWKMNLTGLKSGYPNIIGWHNLPNEPQLVFAGPSLFIRGGDSNYVAAAHRDEILRQFPQAQAKTLEGCGHWLHAQKPTIFNRIVSEFIDKHTV”, the “soluble on expression in E. coli” value was “not soluble”. In the case of “MGSDKIHHHHHHMSPDVDIKALRCFLALAQELSFGRAAERMNLTQPSLSAQIRKLEDQVGHRLFERTTRAVHLSPTGKALIEQARTFVSQADAFAAHLSAWRERPDRRMVLGAPIYTFELPEHGALLSAIARELPDMSLRVDNGFANSLVEGLIKGSVDMAMVVAAAVPHDRYLADMAGEGAGELEMPDGLQRITLSDEQIGLAIPEEHPLASYDIVPPEALSGSVIAMLAPLHGRSLYRPISVWLSAAGATGFLPPEAHAFALERYCREYRIPAISIAQFRPRETGNVVYRPAGGLNVRTELAVLRSTRKQRSSIEERLWDLASSLGR”, the “soluble on expression in E. coli” value is reported as “not soluble”. With “MGSDKIHHHHHHMSQILLIHSSVHGYTQKICEYLQRQLIEQDQLVTVASLAEAPDLALFDKVYIGASIRHGKHRPALYQFIEDHRAELDNKPSGFFSVSLVARKPNKNTPQTNSYMQQFLSQSPWQPKLLQVFGGNLDYQGYGAMDRNIIRFIMWLTKGPTDPNTKVEFTDWQKVDEFAQQIIEA” the “soluble on expression in E. coli” value was “not soluble”.
